± gives the standard deviation of the averaged measurements.
Assay: total protein half-life in vivo (active degradation + dilution); higher = more stable protein
[1] = E. coli NCM3722 delta-clpP delta-lon delta-hslV, growth: N-lim chemostat, doubling time 6 h
[2] = E. coli NCM3722 delta-clpP, growth: N-lim chemostat, doubling time 6 h
[3] = E. coli NCM3722 delta-hslV, growth: N-lim chemostat, doubling time 6 h
[4] = E. coli NCM3722 delta-lon, growth: N-lim chemostat, doubling time 6 h
[5] = E. coli NCM3722 delta-smpB, growth: N-lim chemostat, doubling time 6 h
[6] = wild type E. coli NCM3722, growth: C-lim chemostat, doubling time 3 h
[7] = wild type E. coli NCM3722, growth: C-lim chemostat, doubling time 6 h
[8] = wild type E. coli NCM3722, growth: C-lim chemostat, doubling time 12 h
[9] = wild type E. coli NCM3722, growth: N-lim chemostat, doubling time 6 h
[10] = wild type E. coli NCM3722, growth: N-lim chemostat, doubling time 12 h
[11] = wild type E. coli NCM3722, growth: P-lim chemostat, doubling time 6 h
[12] = wild type E. coli NCM3722, growth: P-lim chemostat, doubling time 12 h

Sequence | total protein half-life in vivo [1] [h] | total protein half-life in vivo [2] [h] | total protein half-life in vivo [3] [h] | total protein half-life in vivo [4] [h] | total protein half-life in vivo [5] [h] | total protein half-life in vivo [6] [h] | total protein half-life in vivo [7] [h] | total protein half-life in vivo [8] [h] | total protein half-life in vivo [9] [h] | total protein half-life in vivo [10] [h] | total protein half-life in vivo [11] [h] | total protein half-life in vivo [12] [h]
MSTTIEKIQRQIAENPILLYMKGSPKLPSCGFSAQAVQALAACGERFAYVDILQNPDIRAELPKYANWPTFPQLWVDGELVGGCDIVIEMYQRGELQQLIKETAAKYKSEEPDAE [P0AC69] | 6.29 | 5.76 ± 1.2 | 3.71 ± 0.071 | 4.31 ± 0.19 | 3.43 ± 0.19 | 2.37 ± 0.19 | 5.03 ± 0.74 | 6.84 ± 0.26 | 3.25 ± 0.33 | 5.45 ± 0.99 | 4.67 ± 1.3 | 11.4 ± 3.8
MSVFPESFLWGGALAANQSEGAFREGDKGLTTVDMIPHGEHRMAVKLGLEKRFQLRDDEFYPSHEATDFYHRYKEDIALMAEMGFKVFRTSIAWSRLFPQGDEITPNQQGIAFYRSVFEECKKYGIEPLVTLCHFDVPMHLVTEYGSWRNRKLVEFFSRYARTCFEAFDGLVKYWLTFNEINIMLHSPFSGAGLVFEEGENQDQVKYQAAHHQLVASALATKIAHEVNPQNQVGCMLAGGNFYPYSCKPEDVWAALEKDRENLFFIDVQARGTYPAYSARVFREKGVTINKAPGDDEILKNTVDFVSFSYYASRCASAEMNANNSSAANVVKSLRNPYLQVSDWGWGIDPLGLRITMNMMYDRYQKPLFLVENGLGAKDEFAANGEINDDYRISYLREHIRAMGEAIADGIPLMGYTTWGCIDLVSASTGEMSKRYGFVFVDRDDAGNGTLTRTRKKSFWWYKKVIASNGEDLE | 3.7 | > 8 | 1.88 |  | 1.81 ± 0.14 |  | 2.47 | 4.65 ± 0.73 |  |  |  | 4.04 ± 0.89
MSVIAQAGAKGRQLHKFGGSSLADVKCYLRVAGIMAEYSQPDDMMVVSAAGSTTNQLINWLKLSQTDRLSAHQVQQTLRRYQCDLISGLLPAEEADSLISAFVSDLERLAALLDSGINDAVYAEVVGHGEVWSARLMSAVLNQQGLPAAWLDAREFLRAERAAQPQVDEGLSYPLLQQLLVQHPGKRLVVTGFISRNNAGETVLLGRNGSDYSATQIGALAGVSRVTIWSDVAGVYSADPRKVKDACLLPLLRLDEASELARLAAPVLHARTLQPVSGSEIDLQLRCSYTPDQGSTRIERVLASGTGARIVTSHDDVCLIEFQVPASQDFKLAHKEIDQILKRAQVRPLAVGVHNDRQLLQFCYTSEVADSALKILDEAGLPGELRLRQGLALVAMVGAGVTRNPLHCHRFWQQLKGQPVEFTWQSDDGISLVAVLRTGPTESLIQGLHQSVFRAEKRIGLVLFGKGNIGSRWLELFAREQSTLSARTGFEFVLAGVVDSRRSLLSYDGLDASRALAFFNDEAVEQDEESLFLWMRAHPYDDLVVLDVTASQQLADQYLDFASHGFHVISANKLAGASDSNKYRQIHDAFEKTGRHWLYNATVGAGLPINHTVRDLIDSGDTILSISGIFSGTLSWLFLQFDGSVPFTELVDQAWQQGLTEPDPRDDLSGKDVMRKLVILAREAGYNIEPDQVRVESLVPAHCEGGSIDHFFENGDELNEQMVQRLEAAREMGLVLRYVARFDANGKARVGVEAVREDHPLASLLPCDNVFAIESRWYRDNPLVIRGPGAGRDVTAGAIQSDINRLAQLL | 3.69 ± 0.6 | 2.74 ± 0.12 | 2.95 ± 0.31 | 3.25 ± 0.14 | 3.01 ± 0.38 | 3.08 ± 0.22 | 4.89 ± 0.2 | 9.3 ± 0.67 | 2.79 ± 0.053 | 4.57 ± 0.19 | 6 ± 0.21 | 11.1 ± 0.36
MSVMLQSLNNIRTLRAMAREFSIDVLEEMLEKFRVVTKERREEEEQQQRELAERQEKISTWLELMKADGINPEELLGNSSAAAPRAGKKRQPRPAKYKFTDVNGETKTWTGQGRTPKPIAQALAEGKSLDDFLI [P0ACG1] | 7.04 ± 1.3 | 6.38 ± 0.2 | 6.63 ± 0.19 | 7.2 ± 0.27 | 5.86 ± 0.72 | 3 ± 0.032 | 5.941 ± 0.033 | 8.33 ± 0.14 | 4.94 ± 0.73 | 12 ± 4 | 5.04 ± 1.5 | 11 ± 0.95
MSVRNIFADESHDIYTVRTHADGPDGELPLTAEMLINRPSGDLFGMTMNAGMGWSPDELDRDGILLLSTLGGLRGADGKPVALALHQGHYELDIQMKAAAEVIKANHALPYAVYVSDPCDGRTQGTTGMFDSLPYRNDASMVMRRLIRSLPDAKAVIGVASCDKGLPATMMALAAQHNIATVLVPGGATLPAKDGEDNGKVQTIGARFANGELSLQDARRAGCKACASSGGGCQFLGTAGTSQVVAEGLGLAIPHSALAPSGEPVWREIARASARAALNLSQKGITTREILTDKAIENAMTVHAAFGGSTNLLLHIPAIAHQAGCHIPTVDDWIRINKRVPRLVSVLPNGPVYHPTVNAFMAGGVPEVMLHLRSLGLLHEDVMTVTGSTLKENLDWWEHSERRQRFKQLLLDQEQINADEVIMSPQQAKARGLTSTITFPVGNIAPEGSVIKSTAIDPSMIDEQGIYYHKGVAKVYLSEKSAIYDIKHDKIKAGDILVIIGVGPSGTGMEETYQVTSALKHLSYGKHVSLITDARFSGVSTGACIGHVGPEALAGGPIGKLRTGDLIEIKIDCRELHGEVNFLGTRSDEQLPSQEEATAILNARPSHQDLLPDPELPDDTRLWAMLQAVSGGTWTGCIYDVNKIGAALRDFMNKN | 4.08 ± 0.67 | 3.14 | 3.82 ± 0.38 | 4.55 ± 0.14 | 3.33 ± 0.14 |  | 5.0317 ± 0.00062 | 8.896 ± 0.017 | 3.48 ± 0.52 | 4.88 ± 1.1 | 5.43 ± 0.13 | 10.1 ± 0.58
MSVTIQGNTSTVISNNSAPEGTSEIAKITRQIQVLTEKLGKISSEEGMTTQQKKEMAALVQKQIESLWAQLEQLLRQQAEKKNEDATVQPDKKEEKKDDTNTAGTIDIYV |  |  |  |  |  | 0.426 |  |  |  |  |  | 

Reference: the supplement of paper PMC11246515
